Data on one substance can be found in paper PMC7875428.

Experiment [1] deals with 6×His-tagged human DSG2 EC1-5 (amino acids A1-A553) from wild-type Expi293F cells (human). Briefly: BLI; biotinylated DSG2 variants loaded on streptavidin biosensors (immobilized at 1 μg/mL); FimH^LD or FimH^Q133K in solution, 10 μM to 156 nM, 15 min association, 20 min dissociation; 10 mM HEPES pH 7.4, 150 mM NaCl, 1 mM CaCl2, 3 mM EDTA, 0.005% P20, 1% BSA, 25°C; Octet-Red96; global 1:1 fit with drifting baseline; apparent constants. (Biolayer interferometry detects binding as a change in optical thickness at a sensor tip.)

The target in experiment [2] is 6×His-tagged human DSG2 EC1-5 (amino acids A1-A553) from Expi293F GnTI- cells (human). The description is as above.

For the substance “lectin domain of FimH (FimH^LD, amino acids F1-G160) (from UniProt P08191 22-181) (domain or fragment)”, the Kd in experiment [1] was 1.6 µM; in experiment [2], 0.484 µM.
